According to patent US20220031840A1, “Method of Treatment” (HaemaLogix Pty Ltd, priority 2018, published 2022):

Experiments:
[1] = tested on: serum M protein; assay: Serum M protein after kappamab; assay type: in vivo, human
[2] = tested on: CXCL10; assay: Biomarker analysis: serum CXCL10; assay type: in vivo, human; details: adjusted for cytokine baseline differences
Protocol: (§1) Patient serum samples for biomarker analysis were collected approximately 30 minutes before infusion of kappamab and then at 6, 48, 192, and 1,080 hours after infusion for all patients. Samples were analysed in triplicate and serum levels of 48 human cytokines, chemokines, and growth factors were measured using the Bio-Plex Pro™ Human Cytokine 27-plex and 21-plex assays according to the manufacturer's recommendations (Bio-Rad, Carlsbad, Calif., USA; Cat No M10-0KCAF0Y, mg0-005KMII). Results were verified by repeating the 21-plex assay in triplicate and the samples were randomized across the assay plate. Pre-infusion samples were used as the baseline (t=0) for the analysis.
(§2) Multivariate analysis of the biomarker data was performed using R version 3.1.0 (2014-04-10) software (http://www.R-project.org/). Linear mixed effects modelling was completed using 1me4 (Bates et al. 2015). […]
(§3) To find significance between kappamab dose, time, and cytokine expression levels, we fitted a linear mixed-effects model that modelled cytokine fluorescence expression levels with fixed-effects terms for baseline cytokine fluorescence expression, kappamab dose (with 4 levels: 0.3, 1.0, 3.0, and 10 mg/kg), time (treated as factor with 5 levels), and cytokine with 48 levels, plus their interactions, with a random effect associated with patient (12 levels) and plex (2 levels). […]

[3] = Phase 1 safety and tolerability of single IV infusion of kappamab (adverse events, laboratory, ECG)
Protocol: Patients on maintenance therapy (thalidomide or lenalidomide) were also eligible for inclusion. Patients were excluded from the study if their serum κFLC was greater than 250 mg/L.
The pharmacodynamics of serum κFLC was also assessed. Drug-target modulation of cell signalling pathways was determined by measuring pro-inflammatory and anti-inflammatory cytokines, chemokines, and growth factors in patient serum at specific time intervals.
After providing HREC-approved consent, patients were screened and assessed for study eligibility.
Within each dose cohort only 1 patient per week was to be treated. […] Premedication was not mandated, however, paracetamol (acetaminophen), corticosteroids, and antihistamines were allowed for the treatment of infusion reactions.
Evaluation of safety and tolerability during treatment included vital signs, physical examination, electrocardiogram (ECG), haematology assessments, clinical chemistry, C-reactive protein, β2-microglobulin, immunoglobulin quantification, urinalysis, creatinine clearance, collection of adverse events (AEs), and drug-induced toxicity. All AEs were graded using the Cancer Therapy Evaluation Program Common Terminology Criteria for Adverse Events, version 3.0.

[4] = tested on: HGF; assay: Biomarker analysis: serum HGF; assay type: in vivo, human; details: adjusted for cytokine baseline differences
Protocol: as §1, §2, §3

[5] = All treatment-emergent AEs, Grade 1-3, 0.3 mg/kg (N = 3)
[6] = All treatment-emergent AEs, Grade 1-3, 1.0 mg/kg (N = 3)
[7] = All treatment-emergent AEs, Grade 1-3, 3.0 mg/kg (N = 3)
[8] = All treatment-emergent AEs, Grade 1-3, 10 mg/kg (N = 3)
[9] = All treatment-emergent AEs, Grade 1-3, Overall (N = 12)
[10] = All treatment-emergent AEs, Grade 4/5, 0.3 mg/kg (N = 3)
[11] = All treatment-emergent AEs, Grade 4/5, 1.0 mg/kg (N = 3)
[12] = All treatment-emergent AEs, Grade 4/5, 3.0 mg/kg (N = 3)
[13] = All treatment-emergent AEs, Grade 4/5, 10 mg/kg (N = 3)
[14] = All treatment-emergent AEs, Grade 4/5, Overall (N = 12)
[15] = All treatment-emergent AEs, Total, 0.3 mg/kg (N = 3)
[16] = All treatment-emergent AEs, Total, 1.0 mg/kg (N = 3)
[17] = All treatment-emergent AEs, Total, 3.0 mg/kg (N = 3)
[18] = All treatment-emergent AEs, Total, 10 mg/kg (N = 3)
[19] = All treatment-emergent AEs, Total, Overall (N = 12)
[20] = Possibly, probably, or definitely related AEs, Grade 1-3, 0.3 mg/kg (N = 3)
[21] = Possibly, probably, or definitely related AEs, Grade 1-3, 1.0 mg/kg (N = 3)
[22] = Possibly, probably, or definitely related AEs, Grade 1-3, 3.0 mg/kg (N = 3)
[23] = Possibly, probably, or definitely related AEs, Grade 1-3, 10 mg/kg (N = 3)
[24] = Possibly, probably, or definitely related AEs, Grade 1-3, Overall (N = 12)
[25] = Possibly, probably, or definitely related AEs, Grade 4/5, 0.3 mg/kg (N = 3)
[26] = Possibly, probably, or definitely related AEs, Grade 4/5, 1.0 mg/kg (N = 3)
[27] = Possibly, probably, or definitely related AEs, Grade 4/5, 3.0 mg/kg (N = 3)
[28] = Possibly, probably, or definitely related AEs, Grade 4/5, 10 mg/kg (N = 3)
[29] = Possibly, probably, or definitely related AEs, Grade 4/5, Overall (N = 12)
[30] = Possibly, probably, or definitely related AEs, Total, 0.3 mg/kg (N = 3)
[31] = Possibly, probably, or definitely related AEs, Total, 1.0 mg/kg (N = 3)
[32] = Possibly, probably, or definitely related AEs, Total, 3.0 mg/kg (N = 3)
[33] = Possibly, probably, or definitely related AEs, Total, 10 mg/kg (N = 3)
[34] = Possibly, probably, or definitely related AEs, Total, Overall (N = 12)
[35] = Related AEs by System Organ Class, Overall total, 0.3 mg/kg (N = 3)
[36] = Related AEs by System Organ Class, Overall total, 1.0 mg/kg (N = 3)
[37] = Related AEs by System Organ Class, Overall total, 3.0 mg/kg (N = 3)
[38] = Related AEs by System Organ Class, Overall total, 10 mg/kg (N = 3)
[39] = Related AEs by System Organ Class, Overall total, Overall (N = 12)
[40] = Related AEs: Dyspnea, 10 mg/kg (N = 3)
[41] = Related AEs: Dyspnea, Overall (N = 12)
[42] = Related AEs: Eructation, 10 mg/kg (N = 3)
[43] = Related AEs: Eructation, Overall (N = 12)
[44] = Related AEs: Flushing, 10 mg/kg (N = 3)
[45] = Related AEs: Flushing, Overall (N = 12)
[46] = Related AEs: Gastrointestinal disorders, Total, 10 mg/kg (N = 3)
[47] = Related AEs: Gastrointestinal disorders, Total, Overall (N = 12)
[48] = Related AEs: Musculoskeletal and connective tissue disorders, Total, 10 mg/kg (N = 3)
[49] = Related AEs: Musculoskeletal and connective tissue disorders, Total, Overall (N = 12)
[50] = Related AEs: Nausea, 10 mg/kg (N = 3)
[51] = Related AEs: Nausea, Overall (N = 12)
[52] = Related AEs: Pain in extremity, 10 mg/kg (N = 3)
[53] = Related AEs: Pain in extremity, Overall (N = 12)
[54] = Related AEs: Respiratory, thoracic & mediastinal disorders, Total, 10 mg/kg (N = 3)
[55] = Related AEs: Respiratory, thoracic & mediastinal disorders, Total, Overall (N = 12)
[56] = Related AEs: Vascular disorders, Total, 10 mg/kg (N = 3)
[57] = Related AEs: Vascular disorders, Total, Overall (N = 12)

## kappamab: humanized form of K121 anti-KMA antibody; VH SEQ ID NO: 1, VL SEQ ID NO: 2
[1]; 7/11 patients
  Patients with minor dose-related decreases in serum M protein: 64%
[1]; in vivo
  Serum M protein response versus IMWG response criteria: did not meet the IMWG response criteria
[2]
  Change in serum concentration: dose-related decreases
[3]; 0.3-10 mg/kg
  DLT or discontinuation due to an AE: no patients who experienced a DLT or discontinued the study due to an AE
[3]; 2/12 patients
  Patients with nausea (most frequently reported AE): 17%
[3]; 2/12 patients, at the highest dose level (10 mg/kg)
  Patients who experienced study drug-related AEs: 17%
[3]; 17/18 events
  AEs that were grade 1 or 2: 94%
[3]; [5]
  Number of patients with AEs (%): 2 (66%)
  number of AEs: 4
[3]; [6]
  Number of patients with AEs (%): 3 (100%)
  number of AEs: 3
[3]; [7]
  Number of patients with AEs (%): 1 (33%)
  number of AEs: 2
[3]; [8]
  Number of patients with AEs (%): 2 (67%)
  number of AEs: 9
[3]; [9]
  Number of patients with AEs (%): 8 (67%)
  number of AEs: 18
[3]; [10]
  Number of patients with AEs (%): 0 (0%)
  number of AEs: 0
[3]; [11]
  Number of patients with AEs (%): 0 (0%)
  number of AEs: 0
[3]; [12]
  Number of patients with AEs (%): 0 (0%)
  number of AEs: 0
[3]; [13]
  Number of patients with AEs (%): 0 (0%)
  number of AEs: 0
[3]; [14]
  Number of patients with AEs (%): 0 (0%)
  number of AEs: 0
[3]; [15]
  Number of patients with AEs (%): 2 (67%)
  number of AEs: 4
[3]; [16]
  Number of patients with AEs (%): 3 (100%)
  number of AEs: 3
[3]; [17]
  Number of patients with AEs (%): 1 (33%)
  number of AEs: 2
[3]; [18]
  Number of patients with AEs (%): 2 (67%)
  number of AEs: 9
[3]; [19]
  Number of patients with AEs (%): 8 (67%)
  number of AEs: 18
[3]; Eight of the 12 patients, all doses
  Patients who experienced treatment-emergent AEs: 67%
[3]; [20]
  Number of patients with AEs (%): 0 (0%)
  number of AEs: 0
[3]; [21]
  Number of patients with AEs (%): 0 (0%)
  number of AEs: 0
[3]; [22]
  Number of patients with AEs (%): 0 (0%)
  number of AEs: 0
[3]; [23]
  Number of patients with AEs (%): 2 (67%)
  number of AEs: 6
[3]; [24]
  Number of patients with AEs (%): 2 (17%)
  number of AEs: 6
[3]; [25]
  Number of patients with AEs (%): 0 (0%)
  number of AEs: 0
[3]; [26]
  Number of patients with AEs (%): 0 (0%)
  number of AEs: 0
[3]; [27]
  Number of patients with AEs (%): 0 (0%)
  number of AEs: 0
[3]; [28]
  Number of patients with AEs (%): 0 (0%)
  number of AEs: 0
[3]; [29]
  Number of patients with AEs (%): 0 (0%)
  number of AEs: 0
[3]; [30]
  Number of patients with AEs (%): 0 (0%)
  number of AEs: 0
[3]; [31]
  Number of patients with AEs (%): 0 (0%)
  number of AEs: 0
[3]; [32]
  Number of patients with AEs (%): 0 (0%)
  number of AEs: 0
[3]; [33]
  Number of patients with AEs (%): 2 (67%)
  number of AEs: 6
[3]; [34]
  Number of patients with AEs (%): 2 (17%)
  number of AEs: 6
[3]; [35]
  Number of patients with AEs (%): 0[0]
  number of AEs: 0[0]
[3]; [36]
  Number of patients with AEs (%): 0[0]
  number of AEs: 0[0]
[3]; [37]
  Number of patients with AEs (%): 0[0]
  number of AEs: 0[0]
[3]; [38]
  Number of patients with AEs (%): 2 (67%)
  number of AEs: 6
[3]; [39]
  Number of patients with AEs (%): 2 (17%)
  number of AEs: 6
[3]; [40]
  Number of patients with AEs (%): 1(33%)
  number of AEs: 1
[3]; [41]
  Number of patients with AEs (%): 1 (8.3%)
  number of AEs: 1
[3]; [42]
  Number of patients with AEs (%): 1 (33%)
  number of AEs: 1
[3]; [43]
  Number of patients with AEs (%): 1 (8.3%)
  number of AEs: 1
[3]; [44]
  Number of patients with AEs (%): 1 (33%)
  number of AEs: 1
[3]; [45]
  Number of patients with AEs (%): 1 (8.3%)
  number of AEs: 1
[3]; [46]
  Number of patients with AEs (%): 2 (67%)
  number of AEs: 3
[3]; [47]
  Number of patients with AEs (%): 2 (17%)
  number of AEs: 3
[3]; [48]
  Number of patients with AEs (%): 1 (33%)
  number of AEs: 1
[3]; [49]
  Number of patients with AEs (%): 1 (8.3%)
  number of AEs: 1
[3]; [50]
  Number of patients with AEs (%): 2 (67%)
  number of AEs: 2
[3]; [51]
  Number of patients with AEs (%): 2 (8.3%)
  number of AEs: 2
[3]; [52]
  Number of patients with AEs (%): 1 (33%)
  number of AEs: 1
[3]; [53]
  Number of patients with AEs (%): 1 (8.3%)
  number of AEs: 1
[3]; [54]
  Number of patients with AEs (%): 1 (33%)
  number of AEs: 1
[3]; [55]
  Number of patients with AEs (%): 1 (8.3%)
  number of AEs: 1
[3]; [56]
  Number of patients with AEs (%): 1 (33%)
  number of AEs: 1
[3]; [57]
  Number of patients with AEs (%): 1 (8.3%)
  number of AEs: 1
[3]; after infusion was stopped, without treatment
  Time to resolution of infusion reaction symptoms: ≤ 30 min
[3]; any patient
  Immune complex formation or serum sickness: no evidence of immune complex formation or serum sickness
[3]; during the study
  Deaths or other serious AEs: no deaths or other serious AEs
  Serum immunoglobulin levels, clinical chemistry, haematology, urinalysis: no dose-related trends
[3]; in vivo
  ECG QTc intervals: no prolongation of QTc intervals
  ECOG performance status scores: no effect
  Lactate dehydrogenase levels or vital signs: No changes from baseline
  Serum C-reactive protein levels: no apparent dose-related trend
[3]; one patient, 10 mg/kg, flushing, dyspnea, nausea after start of infusion
  Infusion reaction: grade 1 infusion reaction
[3]; patients treated up to 10 mg/kg
  Maximum tolerated dose: No maximum tolerated dose of kappamab was defined
[3]; serum blood urea nitrogen, serum creatinine, creatinine clearance
  Kidney function: no drug-related effects on kidney function
[4]
  Change in serum concentration: dose-related decreases
